Experiments:
[1] = target: the molecule itself; assay: SEC; purified CrRPI1 on two different gel filtration matrices (Superose 6 increase; BioSEC-3 300), buffer C (20 mM Tris-HCl pH 7.9, 100 mmol/L NaCl); oligomer state from apparent molecular weight
[2] = target: the molecule itself; assay: SEC-SAXS; 50 µL of CrRPI1 at 10 mg/mL on BioSEC-3 300 column in buffer C in series with the SAXS capillary (SWING, SOLEIL); molecular weight from scattering, curve fitted to the crystallographic dimer

B1: Chlamydomonas reinhardtii chloroplastic ribose-5-phosphate isomerase 1 (CrRPI1) (enzyme, UniProt A8IRQ1 23-269, looked up)
chain: MAAPVSTQLSQDELKKQAAWKAVEYVKSGMVVGLGTGSTAAFAVDRIGQLLKEGKLQNIVGVPTSIRTYEQALSLGIPLATLDEQPKLDVAIDGADEVDPNLDVVKGRGGALLREKMVEMASAKFVCIVDDSKLVEGLGGSKLAMPVEIVQFCHKYTLQRLANLPEVKGCEAKLRMNGDKPYVTDNSNYIVDLYFQTPIKDSQAASKAILGLDGVVDHGLFLDMVDVCIIAGATGVTVQERPNPKKH
notes: residues numbered according to UniProtKB entry A8IRQ1; Theoretical Mw of the recombinant monomer is printed as 27,551 Da; The forward primer introduces an NcoI site at the start codon; source: E. coli BL21(DE3) Rosetta-2 pLysS, purified (NiNTA)
stoichiometry N [1]: 2 | stoichiometry N [2]: 1.78 to 2

Source: publication PMC7589169, “High-Resolution Crystal Structure of Chloroplastic Ribose-5-Phosphate Isomerase from Chlamydomonas reinhardtii—An Enzyme Involved in the Photosynthetic Calvin-Benson Cycle” (International Journal of Molecular Sciences, 2020)
